# Test results from PMC11157483.
# Target: Aplysia californica acetylcholine binding protein (Aplysia californica)
# Assay: cross-linking
substance,measurement,value
Aplysia californica acetylcholine binding protein (natural protein),stoichiometry N,5
